# B1: Mothers against decapentaplegic homolog 4 (Homo sapiens), Q13485 (parent)
# chain: MDNMSITNTPTSNDACLSIVHSLMCHRQGGESETFAKRAIESLVKKLKEKKDELDSLITAITTNGAHPSKCVTIQRTLDGRLQVAGRKGFPHVIYARLWRWPDLHKNELKHVKYCQYAFDLKCDSVCVNPYHYERVVSPGIDLSGLTLQSNAPSSMMVKDEYVHDFEGQPSLSTEGHSIQTIQHPPSNRASTETYSTPALLAPSESNATSTANFPNIPVASTSQPASILGGSHSEGLLQIASGPQPGQQQNGFTGQPATYHHNSTTTWTGSRTAPYTPNLPHHQNGHLQHHPPMPPHPGHYWPVHNELAFQPPISNHPAPEYWCSIAYFEMDVQVGETFKVPSSCPIVTVDGYVDPSGGDRFCLGQLSNVHRTEAIERARLHIGKGVQLECKGEGDVWVRCLSDHAVFVQSYYLDREAGRAPGDAVHKIYPSAYIKVFDLRQCHRQMQQQAATAQAAAAAQAAAVAGNIPGPGSVGGIAPAISLSAAAGIGVDDLRRLCILRMSFVKGWGPDYPRQSIKETPCWIEIHLHRALQLLDEVLHTMPIADPQPLD
# partner: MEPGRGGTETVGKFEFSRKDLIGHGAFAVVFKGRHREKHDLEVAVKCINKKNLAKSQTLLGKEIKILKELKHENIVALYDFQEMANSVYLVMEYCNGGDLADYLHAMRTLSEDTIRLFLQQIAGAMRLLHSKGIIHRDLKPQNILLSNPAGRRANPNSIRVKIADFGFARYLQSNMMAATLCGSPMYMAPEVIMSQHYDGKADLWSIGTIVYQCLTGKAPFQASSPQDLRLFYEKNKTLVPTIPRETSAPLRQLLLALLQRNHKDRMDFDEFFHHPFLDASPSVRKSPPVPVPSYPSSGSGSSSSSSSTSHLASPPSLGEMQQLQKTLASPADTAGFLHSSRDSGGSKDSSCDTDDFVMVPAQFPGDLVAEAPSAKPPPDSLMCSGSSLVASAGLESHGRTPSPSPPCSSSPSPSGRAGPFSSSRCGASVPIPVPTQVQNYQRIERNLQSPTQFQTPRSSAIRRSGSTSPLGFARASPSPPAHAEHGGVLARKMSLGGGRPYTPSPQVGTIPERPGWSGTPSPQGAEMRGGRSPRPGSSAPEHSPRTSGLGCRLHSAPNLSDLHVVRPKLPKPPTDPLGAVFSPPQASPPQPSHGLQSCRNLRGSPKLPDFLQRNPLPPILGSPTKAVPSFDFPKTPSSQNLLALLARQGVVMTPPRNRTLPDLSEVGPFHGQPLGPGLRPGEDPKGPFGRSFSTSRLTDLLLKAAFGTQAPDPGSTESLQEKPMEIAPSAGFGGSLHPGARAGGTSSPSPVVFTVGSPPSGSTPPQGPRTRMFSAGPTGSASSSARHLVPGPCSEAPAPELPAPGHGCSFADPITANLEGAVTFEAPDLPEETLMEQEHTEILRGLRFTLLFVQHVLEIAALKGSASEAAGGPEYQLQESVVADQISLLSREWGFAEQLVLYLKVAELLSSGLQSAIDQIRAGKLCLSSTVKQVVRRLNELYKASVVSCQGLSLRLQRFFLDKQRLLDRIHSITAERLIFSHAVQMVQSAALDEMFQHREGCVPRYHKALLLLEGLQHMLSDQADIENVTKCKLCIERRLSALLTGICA
# B2: Mothers against decapentaplegic homolog 4 (Homo sapiens), Q13485 (parent)
# chain: B1 chain
# partner: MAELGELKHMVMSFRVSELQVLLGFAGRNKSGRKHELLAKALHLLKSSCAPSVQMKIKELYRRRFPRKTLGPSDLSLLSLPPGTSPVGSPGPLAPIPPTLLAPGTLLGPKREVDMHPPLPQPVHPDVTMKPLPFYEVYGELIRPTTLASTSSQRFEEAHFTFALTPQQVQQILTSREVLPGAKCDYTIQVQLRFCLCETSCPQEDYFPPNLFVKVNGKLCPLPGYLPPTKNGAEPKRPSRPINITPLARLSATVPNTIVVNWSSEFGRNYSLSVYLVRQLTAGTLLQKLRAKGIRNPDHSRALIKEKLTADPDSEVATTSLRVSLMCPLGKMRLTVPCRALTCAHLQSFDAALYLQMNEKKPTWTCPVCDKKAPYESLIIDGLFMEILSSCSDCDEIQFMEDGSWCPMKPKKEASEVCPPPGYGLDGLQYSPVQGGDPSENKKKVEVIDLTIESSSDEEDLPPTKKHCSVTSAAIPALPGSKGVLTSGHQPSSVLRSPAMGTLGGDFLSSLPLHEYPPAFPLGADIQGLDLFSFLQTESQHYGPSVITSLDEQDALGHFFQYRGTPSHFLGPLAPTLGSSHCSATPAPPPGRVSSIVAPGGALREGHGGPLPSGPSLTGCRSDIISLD
# B3: Mothers against decapentaplegic homolog 4 (Homo sapiens), Q13485 (parent)
# chain: B1 chain
# partner: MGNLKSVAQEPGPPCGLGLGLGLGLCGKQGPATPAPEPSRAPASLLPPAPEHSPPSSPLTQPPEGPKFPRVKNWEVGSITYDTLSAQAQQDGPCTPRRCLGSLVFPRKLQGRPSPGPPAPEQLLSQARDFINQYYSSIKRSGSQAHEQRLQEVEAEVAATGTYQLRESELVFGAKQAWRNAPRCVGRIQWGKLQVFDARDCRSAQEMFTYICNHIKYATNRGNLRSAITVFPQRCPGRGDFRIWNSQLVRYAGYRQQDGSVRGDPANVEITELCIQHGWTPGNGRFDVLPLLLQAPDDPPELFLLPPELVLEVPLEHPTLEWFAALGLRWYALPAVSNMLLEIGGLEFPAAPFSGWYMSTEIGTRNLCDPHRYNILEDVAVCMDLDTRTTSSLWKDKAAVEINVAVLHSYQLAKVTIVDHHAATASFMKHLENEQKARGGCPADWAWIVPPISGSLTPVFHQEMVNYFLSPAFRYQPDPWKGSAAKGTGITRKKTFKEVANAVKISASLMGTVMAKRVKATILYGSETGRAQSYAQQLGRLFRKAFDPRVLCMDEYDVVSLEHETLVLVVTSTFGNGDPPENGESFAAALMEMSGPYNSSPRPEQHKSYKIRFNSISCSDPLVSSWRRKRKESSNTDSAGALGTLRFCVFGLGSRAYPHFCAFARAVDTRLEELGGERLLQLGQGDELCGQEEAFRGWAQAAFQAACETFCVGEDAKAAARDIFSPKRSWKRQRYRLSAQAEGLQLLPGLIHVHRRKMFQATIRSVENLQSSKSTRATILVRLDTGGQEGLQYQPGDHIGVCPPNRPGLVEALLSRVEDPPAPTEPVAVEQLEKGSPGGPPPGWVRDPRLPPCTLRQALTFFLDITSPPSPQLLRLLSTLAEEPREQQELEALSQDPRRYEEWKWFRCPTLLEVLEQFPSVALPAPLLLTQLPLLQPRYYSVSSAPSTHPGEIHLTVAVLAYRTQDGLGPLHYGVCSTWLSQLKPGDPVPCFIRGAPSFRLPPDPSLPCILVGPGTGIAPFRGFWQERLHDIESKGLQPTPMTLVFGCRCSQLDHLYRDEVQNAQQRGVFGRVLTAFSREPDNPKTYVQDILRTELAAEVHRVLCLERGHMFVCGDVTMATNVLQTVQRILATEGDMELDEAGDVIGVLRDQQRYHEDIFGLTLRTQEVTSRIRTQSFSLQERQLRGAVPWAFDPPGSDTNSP
# B4: Mothers against decapentaplegic homolog 4 (Homo sapiens), Q13485 (parent)
# chain: B1 chain
# partner: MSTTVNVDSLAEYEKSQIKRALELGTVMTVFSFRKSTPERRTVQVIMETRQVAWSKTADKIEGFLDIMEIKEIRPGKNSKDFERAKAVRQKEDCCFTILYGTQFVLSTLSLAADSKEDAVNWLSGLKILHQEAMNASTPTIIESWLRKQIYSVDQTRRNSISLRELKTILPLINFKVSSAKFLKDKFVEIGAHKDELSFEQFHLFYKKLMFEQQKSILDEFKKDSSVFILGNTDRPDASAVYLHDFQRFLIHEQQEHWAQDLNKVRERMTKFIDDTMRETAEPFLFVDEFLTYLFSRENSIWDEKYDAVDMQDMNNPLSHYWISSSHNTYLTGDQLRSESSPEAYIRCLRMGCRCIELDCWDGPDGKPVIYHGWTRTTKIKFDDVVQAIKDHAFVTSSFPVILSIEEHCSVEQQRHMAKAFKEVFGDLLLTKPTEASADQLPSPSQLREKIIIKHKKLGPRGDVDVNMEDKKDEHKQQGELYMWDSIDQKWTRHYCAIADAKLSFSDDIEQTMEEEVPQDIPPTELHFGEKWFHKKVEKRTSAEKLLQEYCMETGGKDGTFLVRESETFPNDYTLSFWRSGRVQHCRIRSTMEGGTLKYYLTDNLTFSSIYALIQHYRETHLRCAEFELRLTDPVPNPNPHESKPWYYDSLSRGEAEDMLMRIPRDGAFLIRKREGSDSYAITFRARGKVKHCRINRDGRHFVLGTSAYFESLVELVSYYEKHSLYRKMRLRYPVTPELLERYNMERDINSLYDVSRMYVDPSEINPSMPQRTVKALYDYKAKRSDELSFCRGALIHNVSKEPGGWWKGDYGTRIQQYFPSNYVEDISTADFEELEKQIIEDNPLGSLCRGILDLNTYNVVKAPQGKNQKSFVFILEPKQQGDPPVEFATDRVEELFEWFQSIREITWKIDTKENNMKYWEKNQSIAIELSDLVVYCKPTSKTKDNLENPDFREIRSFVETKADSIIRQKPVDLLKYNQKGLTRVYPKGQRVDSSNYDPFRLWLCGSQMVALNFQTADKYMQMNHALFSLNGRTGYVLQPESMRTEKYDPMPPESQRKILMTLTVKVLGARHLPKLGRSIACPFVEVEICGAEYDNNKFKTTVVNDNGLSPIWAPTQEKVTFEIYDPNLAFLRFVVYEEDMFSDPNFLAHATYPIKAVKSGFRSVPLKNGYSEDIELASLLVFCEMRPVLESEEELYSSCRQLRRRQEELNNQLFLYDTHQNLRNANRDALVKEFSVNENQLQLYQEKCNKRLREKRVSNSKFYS
# B5: Mothers against decapentaplegic homolog 4 (Homo sapiens), Q13485 (parent)
# chain: B1 chain
# partner: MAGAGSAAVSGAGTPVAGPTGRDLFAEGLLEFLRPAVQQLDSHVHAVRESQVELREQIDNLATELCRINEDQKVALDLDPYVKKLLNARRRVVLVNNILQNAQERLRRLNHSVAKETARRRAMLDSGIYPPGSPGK
# B6: Mothers against decapentaplegic homolog 4 (Homo sapiens), Q13485 (parent)
# chain: B1 chain
# partner: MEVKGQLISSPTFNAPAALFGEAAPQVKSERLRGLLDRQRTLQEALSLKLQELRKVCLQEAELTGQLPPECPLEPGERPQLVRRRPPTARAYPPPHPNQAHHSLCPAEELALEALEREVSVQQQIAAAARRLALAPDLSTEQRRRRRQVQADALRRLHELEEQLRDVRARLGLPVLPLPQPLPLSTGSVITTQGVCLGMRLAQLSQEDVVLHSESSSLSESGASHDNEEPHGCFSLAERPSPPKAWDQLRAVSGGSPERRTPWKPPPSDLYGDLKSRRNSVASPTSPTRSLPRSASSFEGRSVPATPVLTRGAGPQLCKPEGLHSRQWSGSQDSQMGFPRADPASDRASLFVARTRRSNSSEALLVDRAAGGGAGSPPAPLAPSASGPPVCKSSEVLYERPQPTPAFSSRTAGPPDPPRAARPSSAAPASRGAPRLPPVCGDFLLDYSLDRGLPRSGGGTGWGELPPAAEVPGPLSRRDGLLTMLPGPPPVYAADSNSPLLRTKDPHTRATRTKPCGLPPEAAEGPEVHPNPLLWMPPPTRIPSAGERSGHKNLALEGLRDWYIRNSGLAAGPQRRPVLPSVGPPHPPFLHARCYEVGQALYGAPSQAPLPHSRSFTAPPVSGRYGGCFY
# Variants of: B1
# Conditions: with ulk1_human ULK1, O75385
row,Variant,effect of a mutation on the interaction
1,R361H,with no effect

# Variants of: B1
# Conditions: with ulk1_human ULK1, O75385
# Remark: another data set of the same source
row,Variant,effect of a mutation on the interaction
1,G386D,with no effect

# Variants of: B2
# Conditions: with pias3_human PIAS3, Q9Y6X2
row,Variant,effect of a mutation on the interaction
1,G386D,with no effect

# Variants of: B2
# Conditions: with pias3_human PIAS3, Q9Y6X2
# Remark: another data set of the same source
row,Variant,effect of a mutation on the interaction
1,G386D,increasing interaction strength

# Variants of: B3
# Conditions: with nos3_human NOS3, P29474
row,Variant,effect of a mutation on the interaction
1,R361H,with no effect

# Variants of: B3
# Conditions: with nos3_human NOS3, P29474
# Remark: another data set of the same source
row,Variant,effect of a mutation on the interaction
1,G386D,with no effect

# Variants of: B3
# Conditions: with nos3_human NOS3, P29474
# Remark: another data set of the same source
row,Variant,effect of a mutation on the interaction
1,G386D,increasing interaction strength

# Variants of: B4
# Conditions: with plcg2_human PLCG2, P16885
row,Variant,effect of a mutation on the interaction
1,R361C,with no effect

# Variants of: B5
# Conditions: with snapn_human SNAPIN
row,Variant,effect of a mutation on the interaction
1,R361H,with no effect

# Variants of: B6
# Conditions: with cc120_human CCDC120, Q96HB5
row,Variant,effect of a mutation on the interaction
1,G386D,with no effect

# Variants of: B6
# Conditions: with cc120_human CCDC120, Q96HB5
# Remark: another data set of the same source
row,Variant,effect of a mutation on the interaction
1,G386D,increasing interaction strength

# Variants of: B6
# Conditions: with cc120_human CCDC120, Q96HB5
# Remark: another data set of the same source
row,Variant,effect of a mutation on the interaction
1,R361C,with no effect

# — IntAct's records for PubMed 35512704
